The values below come from patent US20140363441A1 (priority 2013, published 2014).

This test deals with M2 protein of influenza A/Puerto Rico/8/34 (H1N1) on the surface of infected MDCK cells or transfected cells (influenza A virus H1N1 A/Puerto Rico/8/34) (UniProt P06821). The experiment in a line: flow cytometry, PR8-infected MDCK cells. In general terms: Flow cytometry measures light scatter and fluorescence of single cells or particles in a stream.
Chain of UniProt P06821 (P06821 whole entry): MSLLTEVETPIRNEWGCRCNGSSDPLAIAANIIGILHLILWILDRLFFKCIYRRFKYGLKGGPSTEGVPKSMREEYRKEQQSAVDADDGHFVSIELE

Consider “chimeric mouse V-region/human IgG1 kappa 14C2 antibody”, for which the EC50 (read off the curve) worked out at 0.3 µg/mL.

A word on the EC50 (read off the curve): it is the concentration that produces a half-maximal response.
